Reference: patent US20060024314A1, “Antibodies and cyclic peptides which bind CEA (carcinoembryonic antigens) and their use as cancer therapeutics” (priority 1998, published 2006)
Bridge positions count the residues as written; N and C are the ends.

Columns and labels:
[1] = molecular target: CEA double mutant Q44R+I46V (human) (UniProt P06731); assay: cell-based or functional assay
CEA mutant D82N (human) = CEA mutant D82N (human) (UniProt P06731); assay: cell-based or functional assay
CEA mutant Q80R (human) = CEA mutant Q80R (human) (UniProt P06731); assay: cell-based or functional assay
[2] = system: CEA-mediated intercellular adhesion; details: from references (29) and (16); cited from earlier work
[3] = molecular target: T1, human carcinoembryonic antigen (CEA), wild type (human, UniProt P06731 35-685, GPI membrane anchor); assay: cell-based or functional assay
T1 sequence (looked up): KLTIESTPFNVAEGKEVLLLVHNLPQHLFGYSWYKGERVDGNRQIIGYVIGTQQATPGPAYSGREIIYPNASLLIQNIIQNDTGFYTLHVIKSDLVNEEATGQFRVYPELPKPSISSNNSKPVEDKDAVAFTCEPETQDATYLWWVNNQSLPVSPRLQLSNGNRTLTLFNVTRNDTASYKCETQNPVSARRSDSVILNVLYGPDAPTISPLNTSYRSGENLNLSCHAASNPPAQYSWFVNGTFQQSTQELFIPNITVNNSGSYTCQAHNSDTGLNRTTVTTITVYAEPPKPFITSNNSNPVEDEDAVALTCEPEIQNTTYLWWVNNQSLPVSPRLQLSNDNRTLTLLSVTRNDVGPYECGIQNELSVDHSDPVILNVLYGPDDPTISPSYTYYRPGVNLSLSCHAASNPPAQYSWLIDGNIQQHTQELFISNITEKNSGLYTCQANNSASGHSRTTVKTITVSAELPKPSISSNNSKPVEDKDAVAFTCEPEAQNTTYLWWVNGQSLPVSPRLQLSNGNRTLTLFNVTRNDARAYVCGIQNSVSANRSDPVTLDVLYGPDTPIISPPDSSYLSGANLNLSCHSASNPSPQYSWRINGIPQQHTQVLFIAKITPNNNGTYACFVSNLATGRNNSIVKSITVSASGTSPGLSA

In the case of “CEA double mutant Q44R+I46V (from UniProt P06731 35-702)”, the degree of differentiation of L6 transfectants [1] is reported as 100%.

For “CEA mutant D82N (from UniProt P06731 35-702)”, the degree of differentiation of L6 transfectants (CEA mutant D82N (human)) was 100%.

For “CEA mutant Q80R (from UniProt P06731 35-702)”, the degree of differentiation of L6 transfectants (CEA mutant Q80R (human)) was 81%.

In the case of “H-CQNDTGC-OH (disulfide 1-7; SMILES C[C@@H](O)[C@@H]1NC(=O)[C@H](CC(=O)O)NC(=O)[C@H](CC(N)=O)NC(=O)[C@H](CCC(N)=O)NC(=O)[C@@H](N)CSSC[C@@H](C(=O)O)NC(=O)CNC1=O) [cyclized peptide QNDTG, cyclized peptide representing subdomain 3 of the CEA N domain]”, the “inhibition of CEA-mediated intercellular adhesion” value [2] is listed as “effective in inhibiting CEA-mediated intercellular adhesion”.

B1: cyclized peptide H-CQNDTGC-OH (subdomain 3) (peptide)
peptide: H-CQNDTGC-OH
modifications: disulfide 1-7
SMILES: C[C@@H](O)[C@@H]1NC(=O)[C@H](CC(=O)O)NC(=O)[C@H](CC(N)=O)NC(=O)[C@H](CCC(N)=O)NC(=O)[C@@H](N)CSSC[C@@H](C(=O)O)NC(=O)CNC1=O
In the case of B1, the “% fusion of L6(CEA) cells (release of the myogenic differentiation block), peptide at 100 µM” value [3] is reported as 36%.

B2: cyclized peptide H-CGNRQIIC-OH (subdomain 2) (peptide)
peptide: H-CGNRQIIC-OH
modifications: disulfide 1-8
SMILES: CC[C@H](C)[C@@H]1NC(=O)[C@H](CCC(N)=O)NC(=O)[C@H](CCCNC(=N)N)NC(=O)[C@H](CC(N)=O)NC(=O)CNC(=O)[C@@H](N)CSSC[C@@H](C(=O)O)NC(=O)[C@H]([C@@H](C)CC)NC1=O
With B2 the “% fusion of L6(CEA) cells (release of the myogenic differentiation block), peptide at 100 µM” value [3] was 28%.

B3: cyclized peptide H-CGYSWYKC-OH (subdomain 1) (peptide)
peptide: H-CGYSWYKC-OH
modifications: disulfide 1-8
SMILES: NCCCC[C@@H]1NC(=O)[C@H](Cc2ccc(O)cc2)NC(=O)[C@H](Cc2c[nH]c3ccccc23)NC(=O)[C@H](CO)NC(=O)[C@H](Cc2ccc(O)cc2)NC(=O)CNC(=O)[C@@H](N)CSSC[C@@H](C(=O)O)NC1=O
In the case of B3, the “% fusion of L6(CEA) cells (release of the myogenic differentiation block), peptide at 100 µM” value [3] is reported as 18%.
